In paper PMC8164090:

Molecular target: Cnn-C^S186D scaffolds (Cnn-C-PReM^m with S186 phosphomimicked) (Drosophila melanogaster)

In the case of “γ-tubulin37C-mCherry (from UniProt P42271 1-457) (natural protein)”, the recruitment of γ-tubulin to scaffolds in unfertilized eggs, fold over Cnn-C scaffolds is reported as 3.8 fold.
